T1: recombinant human CEACAM-1/CD66a protein (R&D systems; Cat. No. 2244-CM) (human, UniProt P13688 35-428)
T1 construct: Bought protein; captured on anti-His (His1K) biosensors in the Octet assay, so it carries a His tag; also called HCCM1; recombinant CEACAM-1/CD66a protein
T1 sequence (looked up): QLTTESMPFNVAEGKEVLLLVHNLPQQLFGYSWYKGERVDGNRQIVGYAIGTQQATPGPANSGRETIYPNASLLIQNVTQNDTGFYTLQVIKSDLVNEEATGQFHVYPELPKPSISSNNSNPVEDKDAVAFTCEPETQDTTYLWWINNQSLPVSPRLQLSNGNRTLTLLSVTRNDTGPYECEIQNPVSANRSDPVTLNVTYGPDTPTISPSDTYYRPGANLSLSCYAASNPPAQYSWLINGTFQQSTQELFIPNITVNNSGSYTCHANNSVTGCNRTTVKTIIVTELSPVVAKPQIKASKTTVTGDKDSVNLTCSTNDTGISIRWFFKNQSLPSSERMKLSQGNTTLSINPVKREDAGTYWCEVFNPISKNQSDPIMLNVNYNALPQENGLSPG

B1: 4R9 (antibody, human IgG4 S228P, lambda, V domains shown)
VH: EVQLLESGGGLVQPGGSLRLSCAASGFTFSNYAMSWVRQAPGKGLEWVSVISHGGGSIYYADSVKGRLTISRDNSKNTLYLQMNSLRAEDTAVYYCARDPTKGYAPTFDYWGQGTLVTVSS
VL: QSVLTQPPSASGTPGQRVTISCSGSSSNIGNNYVSWYQQLPGTAPKLLIYADSRRPSGVPDRFSGSKSGTSASLAISGLRSEDEADYYCGAWDLSLNGYVFGGGTKLTVLG
notes: also called C25-derived clone 4R9
B2: C25 (antibody, human IgG4 S228P, lambda, V domains shown)
VH: EVQLLESGGGLVQPGGSLRLSCAASGFTFSNYAMSWVRQAPGKGLEWVSVISHGGGSIYYADSVKGRLTISRDNSKNTLYLQMNSLRAEDTAVYYCARDPTKGYAPTFDYWGQGTLVTVSS
VL: QSVLTQPPSASGTPGQRVTISCSGSSSNIGNNYVSWYQQLPGTAPKLLIYADSKRPSGVPDRFSGSKSGTSASLAISGLRSEDEADYYCGAWDASLNGYVFGGGTKLTVLG
notes: Made in ExpiHEK293F cells, protein A purified. huIgG4 is the isotype control and anti-huIgG4 the detection reagent; the isotype is not otherwise stated; also called anti-CEACAM1 antibody C25
B3: 4R26 (antibody, human IgG4 S228P, lambda, V domains shown)
VH: EVQLLESGGGLVQPGGSLRLSCAASGFTFSNYAMSWVRQAPGKGLEWVSVISHGGGSIYYADSVKGRLTISRDNSKNTLYLQMNSLRAEDTAVYYCARDPTKGYAPTFDYWGQGTLVTVSS
VL: QSVLTQPPSASGTPGQRVTISCSGSSSNIGNNYVSWYQQLPGTAPKLLIYADSKRLSGVPDRFSGSKSGTSASLAISGLRSEDEADYYCGAWDGRLNGYVFGGGTKLTVLG
notes: also called C25-derived clone 4R26
B4: 4R9_H4-n20 (antibody, human IgG4 S228P, lambda, V domains shown)
VH: EVQLLESGGGLVQPGGSLRLSCAASGFNFSNYAMSWVRQAPGKGLEWVSVISHGGGSIYYADSVKGRLTISRDNSKNTLYLQMNSLRAEDTAVYYCARDPTKGYAPTFDYWGQGTLVTVSS
VL: QSVLTQPPSASGTPGQRVTISCSGSSSNIGNNYVSWYQQLPGTAPKLLIYADSRRPSGVPDRFSGSKSGTSASLAISGLRSEDEADYYCGAWDLSLNGYVFGGGTKLTVLG
notes: also called C25-derived clone 4R9_H4-n20
B5: 4R9_H2-2 (antibody, human IgG4 S228P, lambda, V domains shown)
VH: EVQLLESGGGLVQPGGSLRLSCAASGFTFSNYAMSWVRQAPGKGLEWVSVISHGGGSIYYADSVKGRLTISRDNSKNTLYLQMNSLRAEDTAVYYCARDPTKGYAPLFDYWGQGTLVTVSS
VL: QSVLTQPPSASGTPGQRVTISCSGSSSNIGNNYVSWYQQLPGTAPKLLIYADSRRPSGVPDRFSGSKSGTSASLAISGLRSEDEADYYCGAWDLSLNGYVFGGGTKLTVLG
notes: also called C25-derived clone 4R9_H2-2
B6: C18 (antibody, human IgG4 S228P, lambda, V domains shown)
VH: EVQLLESGGGLVQPGGSLRLSCAASGFTFSNYDMSWVRQAPGKGLEWVSGISHSSGSKYYADSVKGRFTISRDNSKNTLYLQMNSLRAEDTAVYYCARDPLPCLIPKCSYYYAMDVWGQGTLVTVSS
VL: QSVLTQPPSAPGTPGQRVTISCSGSSSNIGSNAVTWYQQLPGTAPKLLIYADSHRPSGVPDRFSGSKSGTSASLAISGLRSEDEADYYCGSWDDSLNAYVFGGGTKLTVLG
B7: C22 (antibody, human IgG4 S228P, lambda, V domains shown)
VH: EVQLLESGGGLVQPGGSLRLSCAASGFTFSDYDMSWVRQAPGKGLEWVSMIYSGSSSKYYADSVKGRFTISRDNSKNTLYLQMNSLRAEDTAVYYCAKAPLPFYFRPKSYYYAMDVWGQGTLVTVSS
VL: QSVLTQPPSASGTPGQRVTISCSGSSSNIGSNNVTWYQQLPGTAPKLLIYANSHRPSGVPDRFSGSKSGTSASLAISGLRSEDEADYYCGSWDSSLNAYVFGGGTKLTVLG
B8: C19 (antibody, human IgG4 S228P, lambda, V domains shown)
VH: EVQLLESGGGLVQPGGSLRLSCAASGFTFSGYAMSWVRQAPGKGLEWVSGIYHDGGSTYYADSVKGRFTISRDNSKNTLYLQMNSLRAEDTAVYYCARVTVLCTTYGCSSYDGMDVWGQGTLVTVSS
VL: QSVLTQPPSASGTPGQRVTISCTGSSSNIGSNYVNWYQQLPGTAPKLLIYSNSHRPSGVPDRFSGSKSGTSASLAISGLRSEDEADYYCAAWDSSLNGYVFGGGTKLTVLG

target: T1, recombinant human CEACAM-1/CD66a …; assay: Octet QKe biolayer interferometry, anti-His (HIS1K) biosensors, antibody 6.25-400 nM
Experimental: The last well in each row was with a sample at the antibody concentration of 0 nM. Recombinant human CEACAM1 protein (R&D Systems; Cat. No. 2244-CM) was diluted to obtain a concentration of […], and dispensed into each well of another column at 200 μl/well.
As for the washing buffer, neutralization buffer and baseline buffer, Reagent/Kinetics buffer (10×) (Fortebio; Cat. No. 18-1092) were 1:10 diluted and dispensed into each well of a column in a row at 200 μl/well, and the regeneration buffer was dispensed into each well at 200 μl/well. Greiner 96-well plate was separately prepared, Reagent/Kinetics buffer (1×) was dispensed into each well of the number of biosensors to be used in a row at 200 μl/well, and Biosensors/Anti-His (His1K) (Fortebio; Cat. No. 18-5120) cassette was installed.

First: B1
Second: B2
The Kd of the first is 10-fold lower: 3.39 nM for the first, 34.9 nM for the second.

First: B3
Second: B4
The Kd of the first is 21-fold lower: 1.82 nM for the first, 39 nM for the second.

B5 gave a Kd of 3.54 nM.

B1 and B2 are within 1.5-fold of each other in koff: 0.000567 s⁻¹ for the first, 0.000505 s⁻¹ for the second.

B3 and B4 are within 1.5-fold of each other in koff: 0.000266 s⁻¹ for the first, 0.000333 s⁻¹ for the second.

B5 was tested, and the koff was 0.000627 s⁻¹.

First: B1
Second: B2
The kon of the first is 9-fold higher: 163000 M⁻¹ s⁻¹ for the first, 18200 M⁻¹ s⁻¹ for the second.

Going from B3 to B4, the kon falls from 133000 M⁻¹ s⁻¹ to 26100 M⁻¹ s⁻¹ (5.1-fold).

For B5, the kon was 169000 M⁻¹ s⁻¹.

target: T1, recombinant human CEACAM-1/CD66a …; assay: ELISA on coated antigen (0.25 µg/ml), antibody 3 µg/ml, HRP anti-human IgG Fc, OD450
Text: All of the recombinant human CEACAM-1/CD66a protein (R&D systems; Cat No. 2244-CM, HCCM1), recombinant human CEACAM-5/CD66e protein (R&D systems; Cat. No. 4128-CM, HCCM5), recombinant human CEACAM-6/CD66c protein (R&D systems; Cat. No. 3934-CM, HCCM6), recombinant human CEACAM-3/CD66d protein (Sino Biological; Cat. No. 11933-H08H, HCCM3), human B7-H5/Gi24/VISTA protein (Sino Biological; Cat. No. 13482-H08H, HVISTA), recombinant human CEACAM-1/CD66a protein Bulk (R&D systems; Cat. No. 2244-CM, HCCM1 (bulk)), recombinant human CEACAM1-N domain-Kappa protein (Mogam, in-house production, HCCM1-N domain-kappa), and BSA protein (2.5 μg each) were dissolved in 10 ml of PBS, respectively, and dispensed into a 96-well plate at 100 μl/well, which was incubated at 4° C. overnight. Thereafter, each well was treated with 300 μl of 1% (v/v) bovine serum albumin, and incubated at 37° C. for 1 hour.
The diluted antibodies were dispensed into each well coated with each protein at 100 μl/well, and incubated at 37° C. for 1 hour. Then, each well was washed 3 times with a washing buffer prepared by diluting 10 μl of Tween 20 (Sigma-Aldrich; Cat. No. P9146) in 990 μl of PBS. Thereafter, 2 μl of HRP-conjugated human anti-IgG-Fc antibody (anti-human IgG Fc, Sigma Cat. No. A0170) was diluted in 10 ml of PBS, added to the wells at 100 μl/well, and incubated for 1 hour.
After completion of the reaction, the wells were washed three times with the washing buffer, and 100 μl of TMB solution was added to each well to induce color development. Then, 100 μl of 2 M H₂SO₄ was added to each well to stop the reaction, and the absorbance was measured at a wavelength of 450 nm.

B6: binds.
B7: binds.
B8: binds.

— patent US20200109196A1 (MOGAM INSTITUTE FOR BIOMEDICAL RESEARCH, published 2020)
